Experimental data reported in patent US20140087995A1 (published 2014).
Values belong to the binder of their own block, whether it stands above or below them. Numbered stars: 1 amine (or outer) side, 2 acyl side, 3 side chain; on linkers, the order of the positions; unused ones are H or OH. Bridge positions count the residues as written; N and C are the ends. Side chains are listed from the residue outwards. Ends that are not written are not given here. * marks the point of attachment. C20 diacid = O=C(O)CCCCCCCCCCCCCCCCCCC(=O)*; γGlu = O=C(O)[C@H](CCC(=O)[*:2])N[*:1]

How the values were obtained:
rat calcitonin receptor [1] = target: T1, rat calcitonin receptor (rat, UniProt P32214 25-516); experiment: ratio of binding IC50s: rat calcitonin receptor / rat amylin receptor (reference)
T1 construct: whole, on cells; Membranes prepared from transiently transfected BHK tk'ts 13 cells (Assay VIII); also called rCTR; rCT
T1 sequence (looked up): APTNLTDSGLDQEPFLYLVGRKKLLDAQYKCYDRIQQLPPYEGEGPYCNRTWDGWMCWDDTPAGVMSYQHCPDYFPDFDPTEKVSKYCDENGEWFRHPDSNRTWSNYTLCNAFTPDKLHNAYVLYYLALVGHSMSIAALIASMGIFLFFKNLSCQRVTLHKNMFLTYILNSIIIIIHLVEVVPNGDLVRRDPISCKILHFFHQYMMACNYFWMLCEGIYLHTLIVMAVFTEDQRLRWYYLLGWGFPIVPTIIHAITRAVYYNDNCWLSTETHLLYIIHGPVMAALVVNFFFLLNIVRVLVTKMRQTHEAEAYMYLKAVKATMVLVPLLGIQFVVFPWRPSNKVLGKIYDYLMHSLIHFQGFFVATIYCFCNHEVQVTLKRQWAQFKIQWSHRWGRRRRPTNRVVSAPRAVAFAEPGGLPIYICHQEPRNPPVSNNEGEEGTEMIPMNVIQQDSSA

[2] = target: T2, human calcitonin receptor (human, UniProt P30988 25-474); experiment: ratio of binding IC50s: human calcitonin receptor / human amylin receptor (reference)
T2 construct: whole, on cells; Membranes prepared from a stably transfected BHK cell line (Assay VII); also called hCTR; hCT
T2 sequence (looked up): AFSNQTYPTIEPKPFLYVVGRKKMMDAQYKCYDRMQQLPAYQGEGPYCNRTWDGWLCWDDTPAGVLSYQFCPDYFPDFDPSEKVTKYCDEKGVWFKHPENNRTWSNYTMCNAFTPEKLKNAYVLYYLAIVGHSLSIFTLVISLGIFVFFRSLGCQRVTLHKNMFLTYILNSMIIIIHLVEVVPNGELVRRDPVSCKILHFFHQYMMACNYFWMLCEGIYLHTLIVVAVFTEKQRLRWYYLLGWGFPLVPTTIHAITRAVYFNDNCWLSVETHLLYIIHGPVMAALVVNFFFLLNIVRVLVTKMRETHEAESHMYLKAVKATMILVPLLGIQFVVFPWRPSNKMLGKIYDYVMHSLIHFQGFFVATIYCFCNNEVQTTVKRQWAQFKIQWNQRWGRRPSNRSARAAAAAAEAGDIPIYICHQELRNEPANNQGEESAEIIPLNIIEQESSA
Method in brief: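 IC₅₀ values were derived by one-site competition analysis of SPA counts. Cell membranes (35 ng/μL) with SPA beads were incubated with test compounds for 120 min at 25° C in Hepes buffer, pH 7.4, containing CaCl2, MgCl₂, OA and Tween20.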

rat calcitonin receptor [3] = target: T1, rat calcitonin receptor; experiment: SPA competition vs 125I-calcitonin, membranes of BHK cells with rat calcitonin receptor (Assay VIII)
[4] = target: T3, rat amylin receptor (rat calcitonin receptor + rat RAMP 3) (rat, UniProt P32214 25-516; Q9JJ73 23-147); experiment: SPA competition vs 125I-rat amylin, membranes of BHK cells with rat calcitonin receptor + rat RAMP3 (Assay VI)
T3 construct: whole, on cells; Membranes prepared from transiently transfected BHK tk'ts 13 cells (Assay VI); also called rAmylin-R; rAmylin
T3 sequence (looked up) 1: T1 sequence (looked up)
T3 sequence (looked up) 2: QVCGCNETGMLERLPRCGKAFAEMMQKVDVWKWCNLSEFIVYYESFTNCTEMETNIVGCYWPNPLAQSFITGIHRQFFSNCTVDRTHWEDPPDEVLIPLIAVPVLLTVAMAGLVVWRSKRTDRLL

- Ratio rCT/rAmylin binding (rat calcitonin receptor [1]): 35.8
- Ratio hCT/hAmylin binding [2]: 45.5
- IC50 (rat calcitonin receptor [3]): 20.8 nM
- IC50 [4]: 0.581 nM
B1: N^ε1-[(4S)-4-carboxy-4-(19-carboxynonadecanoylamino)butanoyl]-[His14,Arg17,Pro21,Pro27,His35]-h-amylin (peptide)
peptide: K([γGlu-C20 diacid])CNTATCATQRLAHFLRHSSPNFGAIPSSTNVGSHTY-NH2
modifications: disulfide 2-7; N-terminus assumed
SMILES: CC[C@H](C)[C@H](NC(=O)[C@H](C)NC(=O)CNC(=O)[C@H](Cc1ccccc1)NC(=O)[C@H](CC(N)=O)NC(=O)[C@@H]1CCCN1C(=O)[C@H](CO)NC(=O)[C@H](CO)NC(=O)[C@H](Cc1c[nH]cn1)NC(=O)[C@H](CCCNC(=N)N)NC(=O)[C@H](CC(C)C)NC(=O)[C@H](Cc1ccccc1)NC(=O)[C@H](Cc1c[nH]cn1)NC(=O)[C@H](C)NC(=O)[C@H](CC(C)C)NC(=O)[C@H](CCCNC(=N)N)NC(=O)[C@H](CCC(N)=O)NC(=O)[C@@H](NC(=O)[C@H](C)NC(=O)[C@@H]1CSSC[C@H](NC(=O)[C@@H](N)CCCCNC(=O)CC[C@H](NC(=O)CCCCCCCCCCCCCCCCCCC(=O)O)C(=O)O)C(=O)N[C@@H](CC(N)=O)C(=O)N[C@@H]([C@@H](C)O)C(=O)N[C@@H](C)C(=O)N[C@@H]([C@@H](C)O)C(=O)N1)[C@@H](C)O)C(=O)N1CCC[C@H]1C(=O)N[C@@H](CO)C(=O)N[C@@H](CO)C(=O)N[C@H](C(=O)N[C@@H](CC(N)=O)C(=O)N[C@H](C(=O)NCC(=O)N[C@@H](CO)C(=O)N[C@@H](Cc1c[nH]cn1)C(=O)N[C@H](C(=O)N[C@@H](Cc1ccc(O)cc1)C(N)=O)[C@@H](C)O)C(C)C)[C@@H](C)O
notes: Analogue of human amylin; also called compound 66

- Ratio rCT/rAmylin binding (rat calcitonin receptor [1]): 126
- Ratio hCT/hAmylin binding [2]: 159
- IC50 (rat calcitonin receptor [3]): 352 nM
- IC50 [4]: 2.8 nM
B2: N^ε1-[(4S)-4-carboxy-4-[[(4S)-4-carboxy-4-(19-carboxynonadecanoylamino)butanoyl]amino]butanoyl]-[Arg17,Pro21,Pro27,His34]-h-amylin (peptide)
peptide: K([γGlu-γGlu-C20 diacid])CNTATCATQRLANFLRHSSPNFGAIPSSTNVGHNTY-NH2
modifications: disulfide 2-7; N-terminus assumed
SMILES: CC[C@H](C)[C@H](NC(=O)[C@H](C)NC(=O)CNC(=O)[C@H](Cc1ccccc1)NC(=O)[C@H](CC(N)=O)NC(=O)[C@@H]1CCCN1C(=O)[C@H](CO)NC(=O)[C@H](CO)NC(=O)[C@H](Cc1c[nH]cn1)NC(=O)[C@H](CCCNC(=N)N)NC(=O)[C@H](CC(C)C)NC(=O)[C@H](Cc1ccccc1)NC(=O)[C@H](CC(N)=O)NC(=O)[C@H](C)NC(=O)[C@H](CC(C)C)NC(=O)[C@H](CCCNC(=N)N)NC(=O)[C@H](CCC(N)=O)NC(=O)[C@@H](NC(=O)[C@H](C)NC(=O)[C@@H]1CSSC[C@H](NC(=O)[C@@H](N)CCCCNC(=O)CC[C@H](NC(=O)CC[C@H](NC(=O)CCCCCCCCCCCCCCCCCCC(=O)O)C(=O)O)C(=O)O)C(=O)N[C@@H](CC(N)=O)C(=O)N[C@@H]([C@@H](C)O)C(=O)N[C@@H](C)C(=O)N[C@@H]([C@@H](C)O)C(=O)N1)[C@@H](C)O)C(=O)N1CCC[C@H]1C(=O)N[C@@H](CO)C(=O)N[C@@H](CO)C(=O)N[C@H](C(=O)N[C@@H](CC(N)=O)C(=O)N[C@H](C(=O)NCC(=O)N[C@@H](Cc1c[nH]cn1)C(=O)N[C@@H](CC(N)=O)C(=O)N[C@H](C(=O)N[C@@H](Cc1ccc(O)cc1)C(N)=O)[C@@H](C)O)C(C)C)[C@@H](C)O
notes: Analogue of human amylin; also called compound 86

- Ratio rCT/rAmylin binding (rat calcitonin receptor [1]): 85.4
- Ratio hCT/hAmylin binding [2]: 51.6
- IC50 (rat calcitonin receptor [3]): 14.7 nM
- IC50 [4]: 0.172 nM
B3: N^ε1-[(4S)-4-carboxy-4-(19-carboxynonadecanoylamino)butanoyl]-[His14,Arg17,Pro21,Pro27,Pro34]-h-amylin (peptide)
peptide: K([γGlu-C20 diacid])CNTATCATQRLAHFLRHSSPNFGAIPSSTNVGPNTY-NH2
modifications: disulfide 2-7; N-terminus assumed
SMILES: CC[C@H](C)[C@H](NC(=O)[C@H](C)NC(=O)CNC(=O)[C@H](Cc1ccccc1)NC(=O)[C@H](CC(N)=O)NC(=O)[C@@H]1CCCN1C(=O)[C@H](CO)NC(=O)[C@H](CO)NC(=O)[C@H](Cc1c[nH]cn1)NC(=O)[C@H](CCCNC(=N)N)NC(=O)[C@H](CC(C)C)NC(=O)[C@H](Cc1ccccc1)NC(=O)[C@H](Cc1c[nH]cn1)NC(=O)[C@H](C)NC(=O)[C@H](CC(C)C)NC(=O)[C@H](CCCNC(=N)N)NC(=O)[C@H](CCC(N)=O)NC(=O)[C@@H](NC(=O)[C@H](C)NC(=O)[C@@H]1CSSC[C@H](NC(=O)[C@@H](N)CCCCNC(=O)CC[C@H](NC(=O)CCCCCCCCCCCCCCCCCCC(=O)O)C(=O)O)C(=O)N[C@@H](CC(N)=O)C(=O)N[C@@H]([C@@H](C)O)C(=O)N[C@@H](C)C(=O)N[C@@H]([C@@H](C)O)C(=O)N1)[C@@H](C)O)C(=O)N1CCC[C@H]1C(=O)N[C@@H](CO)C(=O)N[C@@H](CO)C(=O)N[C@H](C(=O)N[C@@H](CC(N)=O)C(=O)N[C@H](C(=O)NCC(=O)N1CCC[C@H]1C(=O)N[C@@H](CC(N)=O)C(=O)N[C@H](C(=O)N[C@@H](Cc1ccc(O)cc1)C(N)=O)[C@@H](C)O)C(C)C)[C@@H](C)O
notes: Analogue of human amylin; also called compound 67

- Ratio rCT/rAmylin binding (rat calcitonin receptor [1]): 42.8
- Ratio hCT/hAmylin binding [2]: 63
- IC50 (rat calcitonin receptor [3]): 18 nM
- IC50 [4]: 0.42 nM
B4: N^ε1-[(4S)-4-carboxy-4-(19-carboxynonadecanoylamino)butanoyl]-[His14,Arg17,Pro21,Pro27,Pro31]-h-amylin (peptide)
peptide: K([γGlu-C20 diacid])CNTATCATQRLAHFLRHSSPNFGAIPSSTPVGSNTY-NH2
modifications: disulfide 2-7; N-terminus assumed
SMILES: CC[C@H](C)[C@H](NC(=O)[C@H](C)NC(=O)CNC(=O)[C@H](Cc1ccccc1)NC(=O)[C@H](CC(N)=O)NC(=O)[C@@H]1CCCN1C(=O)[C@H](CO)NC(=O)[C@H](CO)NC(=O)[C@H](Cc1c[nH]cn1)NC(=O)[C@H](CCCNC(=N)N)NC(=O)[C@H](CC(C)C)NC(=O)[C@H](Cc1ccccc1)NC(=O)[C@H](Cc1c[nH]cn1)NC(=O)[C@H](C)NC(=O)[C@H](CC(C)C)NC(=O)[C@H](CCCNC(=N)N)NC(=O)[C@H](CCC(N)=O)NC(=O)[C@@H](NC(=O)[C@H](C)NC(=O)[C@@H]1CSSC[C@H](NC(=O)[C@@H](N)CCCCNC(=O)CC[C@H](NC(=O)CCCCCCCCCCCCCCCCCCC(=O)O)C(=O)O)C(=O)N[C@@H](CC(N)=O)C(=O)N[C@@H]([C@@H](C)O)C(=O)N[C@@H](C)C(=O)N[C@@H]([C@@H](C)O)C(=O)N1)[C@@H](C)O)C(=O)N1CCC[C@H]1C(=O)N[C@@H](CO)C(=O)N[C@@H](CO)C(=O)N[C@H](C(=O)N1CCC[C@H]1C(=O)N[C@H](C(=O)NCC(=O)N[C@@H](CO)C(=O)N[C@@H](CC(N)=O)C(=O)N[C@H](C(=O)N[C@@H](Cc1ccc(O)cc1)C(N)=O)[C@@H](C)O)C(C)C)[C@@H](C)O
notes: Analogue of human amylin; also called compound 62
